# Laboratory results as given in PMC2723102 (2009).
# Where no end group is shown, it is not given here. [ ]: non-standard residue; d: D form. pY = N[C@@H](Cc1ccc(OP(=O)(O)O)cc1)C(=O)O; pT = C[C@@H](OP(=O)(O)O)[C@H](N)C(=O)O
# T1: GST-X11β (domain)
# T1 chain: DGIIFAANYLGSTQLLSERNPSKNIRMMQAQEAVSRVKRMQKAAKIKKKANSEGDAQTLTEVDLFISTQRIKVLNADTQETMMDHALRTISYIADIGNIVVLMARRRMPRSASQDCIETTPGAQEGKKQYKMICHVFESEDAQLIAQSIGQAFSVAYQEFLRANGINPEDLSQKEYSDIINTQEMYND
# T2: GST-NUMB-p71 (region with the PTB domain)
# T2 chain: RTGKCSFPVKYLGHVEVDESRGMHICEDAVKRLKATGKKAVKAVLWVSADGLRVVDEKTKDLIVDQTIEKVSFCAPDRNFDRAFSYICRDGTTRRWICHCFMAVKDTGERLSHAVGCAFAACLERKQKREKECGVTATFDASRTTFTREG
# Experiments:
# Experiment in all cases: SPR
# [1] = biological target: GST-Grb2 domain (GST-SH2 recombinant protein)
# GST-X11β (domain) = biological target: T1, GST-X11β (domain)
# [2] = biological target: T2, GST-NUMB-p71 (region with the PTB …)
# Chain of GST-Grb2 domain (GST-SH2 recombinant protein) (chain, as listed by the source): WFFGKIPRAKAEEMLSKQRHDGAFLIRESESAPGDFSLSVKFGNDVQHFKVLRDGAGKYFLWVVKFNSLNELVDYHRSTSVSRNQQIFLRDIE
Binder,Kd [1] [µM],Kd (GST-X11β (domain)) [µM],Kd [2] [µM]
"VMLKKKQYTSIHHGVVEVDAAVTPEERHLSKMQQNG[pY]ENPTYKFFEQMQN (also: strep-tag, place not given here) [strep-tag AID peptide phosphorylated on Tyr-682]",0.00257,–,–
"VMLKKKQYTSIHHGVVEVDAAV[pT]PEERHLSKMQQNGYENPTYKFFEQMQN (also: strep-tag, position not given here) [strep-tag AID peptide phosphorylated on Thr-668]",–,0.0335,–
"VMLKKKQYTSIHHGVVEVDAAVTPEERHLSKMQQNGYENPTYKFFEQMQN (also: strep-tag, position not given here) [strep-tag AID peptide (APP intracellular domain, last 50 amino acids of APP), non-phosphorylated]",–,0.00848,0.105
"VMLKKKQYTSIHHGVVEVDAAV[pT]PEERHLSKMQQNG[pY]ENPTYKFFEQMQN (also: strep-tag, place not given here) [strep-tag AID peptide phosphorylated on Thr-668 and Tyr-682]",0.000413,0.0131,–
